Results: patent US10100120B2, “Antibody which specifically binds to human CRTH2” (KYOWA HAKKO KIRIN CO., LTD, priority 2015, dated 2018)

Tested on: human basophils
Assay: Basophil depletion (cytotoxic) activity in human peripheral blood cells, flow cytometry
Assay type: cell-based
Settings: 37° C., 20 hours
Protocol: Human peripheral blood collected by adding a heparin sodium injection liquid was centrifuged at 4° C. and 1500 rpm for 30 minutes, and the plasma was recovered.
After the plasma was recovered, PBS (NACALAI TESQUE, Inc.) was added to the pellet containing the red blood up to the original volume of blood and the pellet was suspended. Next, to 1 mL of the suspension, 10 mL of hemolyzing solution [solution obtained by diluting 10×RBC Lysis buffer (eBioscience) 10 times with sterile water] was added to be mixed by inversion. The resultant was allowed to stand at room temperature for 10 minutes and centrifuged at room temperature and 1500 rpm for 5 minutes and washed twice with PBS after the supernatant was removed therefrom.
Thereafter, the cell pellet was suspended with the recovered plasma and the cells were seeded in a 48-well plate at 300 μL/well, each of chLym2, humanized Lym2 antibodies LV0HV0, LV0HV1, and LV0HV2a, or an isotype control antibody [IgG1 antibody prepared according to the method described in Example 5 using a vector encoding an anti-2,4-dinitrophenol (DNP) IgG1 antibody described in Clin Cancer Res 2005, 11(8), 3126 to 3135 (hereinafter, referred to as anti-DNP IgG1 antibody)] were added at each final concentrations of 1000, 100, 33, 11, 3.7, 1.2, 0.4, and 0.01 ng/mL to cause a reaction in a 5% CO2 incubator at 37° C. for 20 hours.
After the reaction, the cell fluid in each well was recovered, 10 mL of SM was added thereto, 200 μL per sample of CountBright Absolute Counting Beads, for flow cytometry (Molecular Probes) was added as control beads, and the fluid was centrifuged at 4° C. and 2000 rpm for 10 minutes, and then the supernatant was removed. The resultant was washed twice with SM, 10000 μg/mL of IgG from human serum (Sigma-Aldrich Co. LLC) diluted with SM was added at 300 μL/sample and suspended to cause a reaction at 4° C. for 30 minutes. […]
The cells were washed twice with SM, suspended by SM containing 1% of 7-AAD Staining Solution (BD Biosciences), allowed to stand at 4° C. for 10 minutes, and the fluorescent intensity was analyzed by flow cytometry (BD Biosciences, FACS CantoII).
Human eosinophils were detected as 7-AAD negative siglec8-PE positive fractions in granulocyte fractions of FSC-SSC deployment. Human basophils were detected as 7-AAD negative fractions, CD123-PC-Cy7 positive fractions, FcεRI-APC positive fractions in lymphocyte fractions of FSC-SSC deployment. The cell depletion activity was evaluated by analyzing the count number of each cell per a certain number of CountBright. […]

B1: LV0HV1: humanized Lym2 antibody, VL LV0 (SEQ ID NO: 33), VH HV1 (SEQ ID NO: 51) (antibody, V domains shown)
VH: EVQLVESGGGVVQPGRSLRLSCAASGFTFSNYYMAWVRQAPGKGLEWVATISYDGSSTYYRDSVKGRFTISRDNAKNSLYLQMNSLRAEDTATYYCARHRGYYYSGAGYFDYWGQGTMVTVSS
VL: DIVMTQTPLSLPVTPGESASISCRSSQSLEYSDGYTYLEWYLQKPGQSPQVLIYGVSNRFSGVPDRFSGSGSGTDFTLKISRVEAEDVGVYYCFQATHDPLTFGQGTKLEIK
- cytotoxic activity against basophils (Example 8, 0.01-1000 ng/mL, FIG. 3): comparable to the chimeric Lym2 antibody chLym2
- removal of basophils (Example 14, 0.1-1000 ng/mL, FIG. 11): removed
